Laboratory results as given in article PMC11203719, “Mts1 (S100A4) and Its Peptide Demonstrate Cytotoxic Activity in Complex with Tag7 (PGLYRP1) Peptide” (International Journal of Molecular Sciences, 2024).

B1: Mts1 (S100A4) protein, recombinant human (natural protein)
chain: not shown
modifications: Alexa Fluor 633 label (only in the thermophoresis with Tag7, 17.1, 17.1A and 17.1B)
notes: cDNA subcloned into pQE-30; PDB 3NCF is printed for Mts1 but may be a misprint; also called metastasin 1; full-sized Mts1; source: E. coli M15 (pREP4), pQE-30, purified (HisTrap FF)
B2: peptide 17.1A of Tag7 (PGLYRP1) (peptide)
peptide: RSNYVLKG
notes: source: synthetic peptide (Fmoc, HPLC purified)
B3: peptide 17.1B of Tag7 (PGLYRP1) (peptide)
peptide: HRDVQRT
notes: as for B2

Columns and labels:
[1] = molecular target: the molecule itself; test: SDS-PAGE and Western blot; eluate of recombinant Mts1 from 17.1-Sepharose resolved by 12% SDS-PAGE and blotted with anti-Mts1; oligomer state read from the band
[2] = molecular target: B1; test: MST; Mts1 labelled with Alexa Fluor 633 (200 nM), preincubated 20 min in the dark at room temperature with 16 concentrations of Tag7 or peptide; Monolith NT.115, 10% IR laser power; apparent Kd; details: both partners purified

| Binder | stoichiometry N [1] | Kd [2] [nM] |
| --- | --- | --- |
| B1 | 4 |  |
| B2 |  | 109 |
| B3 |  | 7.26 |
